Patent US20170137511A1 (CALYPSO BIOTECH, published 2017)
Where a chain is given by its changes, count along the chain named.

T1: recombinant mouse IL-15 (R&D Systems cat. no. 447-ML) (mouse, UniProt P48346 49-162)
T1 sequence: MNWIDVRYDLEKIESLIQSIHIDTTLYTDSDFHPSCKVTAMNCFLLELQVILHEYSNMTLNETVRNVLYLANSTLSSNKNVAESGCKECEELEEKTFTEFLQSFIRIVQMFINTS

T2: recombinant rat IL-15 (Sigma cat. no. SRP4172) (rat, UniProt P97604 49-162)
T2 sequence: T1 sequence with S19F, A82I, K95R, T96N, R106H

B1: huB-E29-2 (antibody, human IgG1, kappa)
heavy: not shown
light: DVVMTQSPLSLPVTLGQPASISCRSSQSIVDITGNTYLEWYQQRPGQSPRLLIYKVFNRFSGVPDRFSGSGSGTDFTLKISRVEAEDVGVYYCFQDSFVPYTFGQGTKLEIKRTVAAPSVFIFPPSDEQLKSGTASVVCLLNNFYPREAKVQWKVDNALQSGNSQESVTEQDSKDSTYSLSSTLTLSKADYEKHKVYACEVTHQGLSSPVTKSFNRGEC
notes: Humanized B-E29 variant; human IgG1 (G1m3) / kappa (Km3), produced in CHO cells; also called huVH2/huVL1
B2: 146B7 (comparative antibody 2) (antibody, V domains shown)
VH: EVQLVQSGAEVKKPGESLKISCKVSGYFFTTYWIGWVRQMPGKGLEYMGIIYPGDSDTRYSPSFQGQVTISADKSISTAYLQWSSLKASDTAMYYCARGGNWNCFDYWGQGTLVTVSS
VL: EIVLTQSPGTLSLSPGERATLSCRASQSVSSSYLAWYQQKPGQAPRLLIYGASRRATGIPDRFSGSGSGTDFTLTISRLEPEDFAVYYCQRYGSSHTFGQGTKLEIS
notes: Fully human antibody of the prior art (WO 03/017935), 'produced in the same expression system'; also called AMG 714; HuMaxIL-15
B3: mouse anti-IL-15 monoclonal antibody B-E29 (antibody, V domains shown)
VH: EVRLMASGGGLVKPGGSLKLSCAASEFTFSNYAMSWVRQTPEKRLEWVATISRGGDYTYYPDSVKGRFTISRDNAKNTLYLQMSSLRSEDTALYYCARRVSMITGGWAMDYWGQGTSVTVSS
VL: DVLMTQTPLSLPVSLGDQASISCRSSQSIVDITGNTYLEWYLQKPGQSPKLLIYKVFNRFSGVPDRFSGSGSGTDFTLKISRVEAEDLGLYYCFQDSFVPYTFGGGTKLEIK
notes: Mouse IgG1 (heavy chain) kappa (light chain); also called mouse B-E29; comparative antibody 1
B4: hVH1:hVK2 (antibody, human IgG1, kappa, V domains shown)
VH: B3 VH with K13Q, K19R, T40A, E42G, R44G, A75S, S84N, S88A, L93V, S117L
VL: EVVMTQSPATLSLSPGERATLSCRSSQSIVDITGNTYLEWYQQKPGQAPRLLIYKVFNRFSGIPARFSGSGSGTDFTLTISSLEPEDFAVYYCFQDSFVPYTFGQGTKLEIKR
notes: Human IgG1 (G1m3) / kappa (Km3)
B5: cVH1:hVK2 (antibody, human IgG1, kappa, V domains shown)
VH: B3 VH
VL: B4 VL
notes: as for B4

Legend:
[1] = molecular target: T3, human IL-15 (preparation not stated) (human, UniProt P40933 49-162, limits assumed); experiment: cell-based or functional assay
T3 sequence (P40933 49-162 limits assumed): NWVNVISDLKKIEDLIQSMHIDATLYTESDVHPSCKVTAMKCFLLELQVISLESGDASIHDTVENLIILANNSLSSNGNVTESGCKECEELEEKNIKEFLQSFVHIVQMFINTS

[2] = molecular target: T4, recombinant human IL-15 (Prospec cat no. CYT230) (human, UniProt P40933 49-162); experiment: SPR (Biacore 3000), human IL-15 amine-coupled to the chip, antibody injected, 1:1 Langmuir fit
T4 sequence (P40933 other isoform, or with tags, fused parts or gaps): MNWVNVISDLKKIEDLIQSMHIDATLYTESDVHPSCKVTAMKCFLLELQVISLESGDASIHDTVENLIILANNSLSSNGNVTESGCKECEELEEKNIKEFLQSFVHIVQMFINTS
Description: Human IL-15 (Prospec cat no. CYT230) was immobilized onto a CMS chip (GE Healthcare) using standard amine coupling, and antibodies injected at various concentrations in 120 μl phosphate buffer saline with a flow rate of […]. Binding kinetics were analyzed on a Biacore 3000 apparatus (GE Healthcare) with a 300 seconds dissociation period. Reference signal and 0 nM antibody concentration signal were substracted and data fitted using a 1:1 (Langmuir) binding model.

[3] = molecular target: T4, recombinant human IL-15 (Prospec cat …); experiment: ELISA, plate-bound human IL-15; printed as BC50 (half-maximal binding concentration)
Description: (§1) Maxisorp plates were coated with recombinant human IL-15 (Prospec cat no. CYT230) or Rhesus macaque IL-15 (MyBiosource cat. no. MBS948894) at 100 ng/well in carbonate coating buffer for 2 hours at 37° C. Since published sequences of Rhesus macaque and Cynomolgus monkey IL-15 are identical, such recombinant IL-15 protein was referred to as Macaque Monkey IL-15. Tested human IL-15 recombinant protein has a sequence identical to that provided in SEQ ID NO: 1 but with an additional methionine at the N-terminal position as usually done for expressing recombinant proteins in E. Coli. Tested recombinant Macaque Monkey IL-15 was produced in yeast and has a sequence identical to that provided in SEQ ID NO: 4 but with an additional N-terminal His tag.
(§2) The plate was then blocked with 2% normal goat serum for 30 min at 37° C. and washed 6 times with PBS-Tween (0.05% Tween-20 in PBS, v/v). Test antibodies were added to the plate in triplicate at various dilutions in PBS-Tween and the plate was incubated with gentle rocking at room temperature for 2 hours. The plate was then washed 6 times with PBS-Tween and an appropriate dilution of goat anti-human IgG antibody (Millipore cat. no. AP309P) conjugated to horseradish peroxidase (HRP) was added to the plate and left rocking at room temperature for 1 hour. The plate was then washed 6 times with PBS-Tween and incubated with TMB substrate. The reaction was stopped by the addition of 1M H₂SO₄ and read at 450 nm. Dose response curves of absorbance versus concentration were plotted and analyzed to determine half-maximal binding concentrations (BC₅₀) using the Graphpad Prism software. BC₅₀ values expressed as molarity were extrapolated from concentration in ng/ml using a 150 kDa molecular weight value for all antibodies.

[4] = molecular target: recombinant human IL-2 (R&D Systems cat. no. 202-IL-010) (human, UniProt P60568 21-153); experiment: ELISA, plate-bound recombinant human IL-2 (100 ng/well), HRP goat anti-human IgG, absorbance at 450 nm
recombinant human IL-2 (R&D Systems cat. no. 202-IL-010), sequence (P60568 21-153 limits assumed): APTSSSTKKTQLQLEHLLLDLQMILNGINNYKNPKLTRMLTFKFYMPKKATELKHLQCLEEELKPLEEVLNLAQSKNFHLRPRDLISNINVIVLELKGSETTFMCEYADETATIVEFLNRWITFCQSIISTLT
Description: Maxisorp plates were coated with recombinant human IL-2 (R&D Systems cat. no. 202-IL-010) of SEQ ID NO: 38 at 100 ng/well in carbonate coating buffer for 2 hours at 37° C. The plate was then blocked with 2% normal goat serum for 30 min at 37° C. and washed 4 times with PBS-Tween (0.05% Tween-20 in PBS, v/v). Test antibodies or positive control biotinylated antibody (anti-IL-2 Novus Bio cat. no. NBP1-43491) were added to the plate in duplicate at 5 μg/ml in PBS-Tween and the plate was incubated with gentle rocking at room temperature for 2 hours. The plate was then washed 4 times with PBS-Tween and an appropriate dilution of goat anti-human IgG antibody (Millipore cat. no. AP309P) conjugated to horseradish peroxidase (HRP) for test antibodies, or streptavidin-HRP for positive control antibody, was added to the plate and left rocking at room temperature for 1 hour. The plate was then washed 4 times with PBS-Tween and incubated with TMB (3,3′,5,5′-tetramethylbenzidine) substrate. The reaction was stopped by the addition of 1 M H₂SO₄ and read at 450 nm.

[5] = molecular target: T5, recombinant human IL-15 (R&D systems cat. no. 247-IL) (human, UniProt P40933 49-162); experiment: cell-based or functional assay
T5 sequence (P40933 49-162 limits assumed): as the sequence (P40933 49-162 limits assumed) above

[6] = molecular target: T1, recombinant mouse IL-15 (R&D Systems …); experiment: ELISA, plate-bound recombinant mouse IL-15 (100 ng/well), HRP goat anti-human IgG, absorbance at 450 nm
Description: (§3) Maxisorp plates were coated with recombinant mouse IL-15 (R&D Systems cat. no. 447-ML) or rat IL-15 (Sigma cat. no. SRP4172) at 100 ng/well in carbonate coating buffer for 2 hours at 37° C. Tested IL-15 recombinant proteins have a sequence identical to that provided in SEQ ID NO: 2 (mouse IL-15) and SEQ ID NO: 3 (rat IL-15) but with an additional methionine at the N-terminal position as usually done for expressing recombinant proteins in E. Coli.
(§4) The plate was then blocked with 2% normal goat serum for 30 min at 37° C. and washed 6 times with PBS-Tween (0.05% Tween-20 in PBS, v/v). Test antibodies were added to the plate in triplicate at various dilutions in PBS-Tween and the plate was incubated with gentle rocking at room temperature for 2 hours. As positive controls, rabbit-anti-mouse IL-15 (Acris cat. no. AP01124PU-S) or rabbit anti-rat IL-15 (Biovision cat. no. 5172) antibodies were tested at the same concentrations. The plate was then washed 6 times with PBS-Tween and an appropriate dilution of HRP-conjugated goat anti-human IgG antibody (Millipore cat. no. AP309P) for humanized antibodies, or goat-anti-rabbit IgG antibody (Sigma cat. no. A 4416) for the positive controls was added and the plate was left rocking at room temperature for 1 hour. The plate was then washed 6 times with PBS-Tween and incubated with TMB substrate. The reaction was stopped by the addition of 1M H₂SO₄ and read at 450 nm. Dose response curves of absorbance versus concentration were plotted using the Graphpad Prism software.

[7] = molecular target: T6, recombinant Macaque Monkey IL-15 (MyBiosource cat. no. MBS948894) (Rhesus macaque / Cynomolgus monkey, UniProt P40221 49-162 (Chlorocebus aethiops entry)); experiment: cell-based or functional assay
T6 sequence (P40221 49-162): as the sequence (P40933 49-162 limits assumed) above, with L52H, A57T, S58D, S73I, V80I counted along it

[8] = molecular target: T5, recombinant human IL-15 (R&D systems …); experiment: cell-based or functional assay; remark: listed apart in the source
[9] = molecular target: T6, recombinant Macaque Monkey IL-15 …; experiment: ELISA, plate-bound Macaque Monkey IL-15; printed as BC50 (half-maximal binding concentration)
Description: as §1, §2

[10] = molecular target: T2, recombinant rat IL-15 (Sigma cat. no. …); experiment: ELISA, plate-bound recombinant rat IL-15 (100 ng/well), HRP goat anti-human IgG, absorbance at 450 nm
Description: as §3, §4

[11] = molecular target: T4, recombinant human IL-15 (Prospec cat …); experiment: ELISA, plate-bound recombinant human IL-15 (100 ng/well), HRP goat anti-human IgG, absorbance at 450 nm
Description: as §1
The plate was then blocked with 2% normal goat serum for 30 min at 37° C. and washed 6 times with PBS-Tween (0.05% Tween-20 in PBS, v/v). […] The reaction was stopped by the addition of 1M H₂SO₄ and read at 450 nm. Dose response curves of absorbance versus concentration were plotted and analyzed to determine half-maximal binding concentrations (BC₅₀) using the Graphpad Prism software. BC₅₀ values expressed as molarity were extrapolated from concentration in ng/ml using a 150 kDa molecular weight value for all antibodies.

[12] = molecular target: T3, human IL-15 (preparation not stated); experiment: ELISA screen of hybridoma supernatants
[13] = molecular target: T3, human IL-15 (preparation not stated); experiment: ELISA; the weaker binders of the comparison

Binder | Kd [2] | koff [2] | kon [2] | EC50 [3] | IC50 in M07e cells for IL-15 trans presentation [5] | IC50 in Kit 225 cells (nM), Human IL-15 [8] | IC50 in M-07e cells (nM), Human IL-15 [8] | EC50 [9] | binding result [13] | also measured
B1 | 0.0094 nM | 1.07e-05 s⁻¹ | 1.15e+06 M⁻¹ s⁻¹ | 1.47 nM | 0.37 nM | 0.083 nM | 0.017 nM | 0.34 nM |  | half-maximal inhibitory concentration (IC50) of IL-15-induced prevention of apoptosis, type II RCD primary IEL cell line HAM RAC [1]: 2.36 nM; binding result [4]: no binding (tested: 5 µg/ml); binding result [6]: no binding (tested: log 3.7 (about 5000 ng/mL)); IC50 in Kit 225 cells (nM), Macaque Monkey IL-15 [7]: 0.112 nM; IC50 in M-07e cells (nM), Macaque Monkey IL-15 [7]: 0.23 nM; binding result [10]: no binding (tested: log 3.7 (about 5000 ng/mL))
B2 | 0.0367 nM | 5.26e-05 s⁻¹ | 1.44e+06 M⁻¹ s⁻¹ | 8.41 nM | 0.63 nM | 3.7 nM | 3.2 nM | 0.733 nM |  | EC50 (read off the curve) [11]: ~0.8 µg/mL
B3 |  |  |  |  |  |  |  |  |  | binding result [12]: binds
B4 |  |  |  |  |  |  |  |  | binds | 
B5 |  |  |  |  |  |  |  |  | binds | 
